Ends that are not written are not given here. * marks the point of attachment. Dansyl = CN(C)c1cccc2c(S(=O)(=O)*)cccc12; K(dns) = dansyl-lysine
B1: phage SNiAX6 (peptide)
peptide: RTTTAKGCLLGSFGVLSGCSFTPTSPPPHLGYPPHSVN
modifications: cysteine pairing not given here; also: displayed as N-terminal pIII fusion on M13 phage
B2: phage SNiAX2 (peptide)
peptide: SDSDGDHYGLRGGVRCSLRDRGCGLALSTVHAGPPSFYPKLSSP
modifications: cysteine pairing not given here; also: displayed as N-terminal pIII fusion on M13 phage

Tests used:
[1] = tested on: P100 membrane fraction of Caco-2 cells; assay: Dansylated peptide ELISA: relative binding of PAX2 and HAX42 peptides to P100 fractions (ratio to ZElan021); details: ratio to ZElan021 = 1.00; for Binding value at 25 μg/ml: HAX42 peptides
Procedure: The peptides and proteins were analyzed by a dansylated peptide ELISA method in which 96 well plates were coated overnight at 4° C. with 100 μl/well coating protein (normally 100 μg/ml P100 membrane fraction) in 0.05M carbonate buffer pH9.6. Nonspecific binding was blocked using 200 μl/well, 2% Marvel/PBS for 2 hours at 37° C. prior to incubation with dansylated peptides. The plates were washed three times with PBS/0.05% Tween 20 and after each subsequent incubation step. […] A buffer blank control was included to ensure that background binding to plastic was not due to the antibodies used in the assay system. […] Plates were developed using 75 μl/well Bionostics TMB substrate and incubated for approximately 10 minutes. The developing reaction was stopped using Bionostics Red Stop solution (25 μl/well), and the optical density of the plates was read at 650 nm. […]

[2] = tested on: rat gastro-intestinal tract (closed loop); assay: Transport of preselected phage libraries in rat closed loop, detected by oligonucleotide hybridization/autoradiography; details: in words
Procedure: Four preselected phage libraries, GI-D2H, GI-hSI, GI-HPT1 and GI-hPEPT1, were constructed by pooling phage previously selected by screening random phage display libraries D38 and DC43 using the HPT1, HPEPT1, D2H and hSI receptor or binding sites located in the GIT.
In particular, phages selected in vitro to each receptor or binding site located in the GIT were amplified in E. coli, PEG-precipitated, resuspended in TBS and the titer of each phage sample was determined by plaquing in E. coli as described above. […] Using the in situ loop model described above, 0.5 ml of preselected phage library solution was injected into the tied-off portion of the duodenum/jejunum. Blood was collected into heparinized tubes from the portal vein at 0, 15, 30, 45 and 60 minutes. A blood sample was taken from the systemic circulation at the end of the experiment. Similarly, the portion of the duodenum/jejunum used for phage injection was taken at the end of the experiment.
Thirty microliters of the collected portal blood (neat and 10^−2, 10^−1, 10^−6 dilutions) was added to 30 μl E. coli K91Kan cells (overnight culture) and incubated at 37° C. for 10 min. Subsequently, 3 ml of top agarose was added and the samples were plated for plaques. One hundred microliters of the collected portal blood was added to 100 μl of E. coli K91Kan. Five milliliters of LB medium was then added and the samples were incubated at 37° C. overnight in a rotating microbial incubator. The E. coli was removed by centrifugation and the amplified phage supernatant samples were either titered directly or were PEG-precipitated, resuspended in TBS and titered. Following titration of the amplified phage, samples containing phage from each set of animals were combined, adjusting the titer of each sample to the same titer, and were plated for plaques on LB agar lates (22 cm^2 square plates). Either 12,000 or 24,000 phage were lated for plaques.
Thirty microliters of the collected systemic blood (neat and 10^−2, 10^−1, 10^−6 dilutions) was added to E. coli K91Kan cells, incubated at 37° C. for 10 min. Three ml of top agarose was then added and the samples were plated for plaques. One hundred microliters of the collected systemic blood was added to 100 μl of E. coli K91Kan, incubated at 37° C. for 10 min. Five milliliters of LB medium was then added and the samples were incubated at 37° C. overnight in a rotating microbial incubator. The E. coli was removed by centrifugation and the amplified phage supernatant samples were either titered directly or were PEG-precipitated, resuspended in TBS and titered. Following titration of the amplified phage, samples containing phage from each set of animals were combined, adjusting the titer of each sample to the same titer, and were plated for plaques on LB agar plates (22 cm^2 square plates). Either 12,000 or 24,000 phage were plated for plaques.
The intestinal tissue portion used in each closed loop was excised. […] Alternatively, the tissue (in PBS supplemented with protease inhibitors) was homogenized in an Ultra Thorex homogenizer, washed 3 times in PBS containing protease inhibitors and resuspended in PBS containing protease inhibitors (Int-G samples). In each case, serial dilutions (neat and 10^−2, 10^−4, 10^−6 dilutions) of the tissue homogenate was titered in E. coli.
The phage amplified from the portal blood, systemic blood and intestinal tissue was plated for plaques. […] The filters were air-dried, and the DNA was cross-linked to the filter (UV crosslinking: 2 min, high setting). The filters were incubated in pre-hybridization buffer (6×SSC, 5× Denhardt's solution, 0.1% SDS, […] yeast tRNA) at 40° C.–45° C. for at least 60 min.
Synthetic oligonucleotides, (22-mers), complimentary to regions coding for the receptor or binding sites used to create the preselected phage library, were synthesized (see Table 14 below).

[3] = target: bovine serum albumin (bovine) (UniProt P02769); assay: phage ELISA on coated BSA
bovine serum albumin (bovine), sequence (P02769 25-607 limits assumed): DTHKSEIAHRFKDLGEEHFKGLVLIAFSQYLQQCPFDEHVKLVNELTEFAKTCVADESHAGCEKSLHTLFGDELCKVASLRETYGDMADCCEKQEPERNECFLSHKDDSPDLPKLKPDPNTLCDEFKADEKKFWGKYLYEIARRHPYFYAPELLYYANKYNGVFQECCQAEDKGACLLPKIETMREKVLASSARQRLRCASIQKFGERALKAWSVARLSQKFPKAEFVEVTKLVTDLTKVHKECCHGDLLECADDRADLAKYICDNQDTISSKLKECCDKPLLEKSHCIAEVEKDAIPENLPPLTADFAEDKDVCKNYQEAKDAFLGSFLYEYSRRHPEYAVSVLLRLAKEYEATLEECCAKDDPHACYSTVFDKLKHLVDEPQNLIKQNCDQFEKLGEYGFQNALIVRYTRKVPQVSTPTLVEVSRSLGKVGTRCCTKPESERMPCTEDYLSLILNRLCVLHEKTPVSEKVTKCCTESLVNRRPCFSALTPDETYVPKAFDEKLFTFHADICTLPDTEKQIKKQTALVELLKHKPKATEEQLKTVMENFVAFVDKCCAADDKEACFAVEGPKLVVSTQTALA

| Molecule | OD [3] [OD 650 nm] | other results |
| --- | --- | --- |
| H2N—K(dns)SDHALGTNLRSDNAK ({K(dns)}-SDHALGTNLRSDNAK; not fully specified (C-terminus); printed as H2N—K(dns)SDHALGTNLRSDNAK) [ZElan089] |  | Binding value at 25 μg/ml ([1]; first column): 0.55; Binding value at 25 μg/ml ([1]; second column): 0.44; Binding value at 25 μg/ml ([1]; third column): 0.49 |
| H2N—K(dns)SDHALGTNLRSDNAKEPGDY ({K(dns)}-SDHALGTNLRSDNAKEPGDY; not fully specified (C-terminus); printed as H2N—K(dns)SDHALGTNLRSDNAKEPGDY) [ZElan087] |  | Binding value at 25 μg/ml ([1]; first column): 0.46; Binding value at 25 μg/ml ([1]; second column): 0.44 |
| H2N—K(dns)SDNAKEPGDYNCCGNGNSTG ({K(dns)}-SDNAKEPGDYNCCGNGNSTG-NH2; cysteine pairing not given here) [ZElan088] |  | Binding value at 25 μg/ml ([1]; first column): 2.21; Binding value at 25 μg/ml ([1]; second column): 1.41; Binding value at 25 μg/ml ([1]; third column): 1.63 |
| K(Dansyl)GRNHDVVSSNTHKSYRSPRSASYPRLSNDRTDRTEPAPSS-NH2 [ZElan083] |  | Binding value at 20 μg/ml ([1]; PAX2 peptides, first column): 0.43; Binding value at 20 μg/ml ([1]; PAX2 peptides, second column): 0.63; Binding value at 50 μg/ml ([1]; PAX2 peptides, 50 μg/ml, second column): 0.88 |
| STPPSREAYSRPYSVDSDSDTNAKHSSHNRRLRTRSRPN (not fully specified) [PAX2] |  | Presence in the portal or systemic circulation ([2]; HPT1 pool, PAX2 used at 4x concentration): found in the portal and systemic circulation; Binding to / presence in the intestine samples ([2]; hPEPT1 pool): not found; Presence in the portal circulation ([2]; hPEPT1 pool): found |
| B1 | 0.056 |  |
| RTFENDGLGVGRSIQKKSDRWYASHNIRSHFASMSPAGK (peptide, not shown: large carriers) [phage PAX14] | 0.139 |  |
| SVGNDKTSRPVSFYGRVSDLWNASLMPKRTPSSKRHDDG [phage DCX45] | 0.075 |  |
| SPKLSSVGVMTKVTELPTEGPNAISIPISATLGPRNPLR (also: displayed as N-terminal pIII fusion on M13 phage) [phage SNiAX8] | 0.068 |  |
| RSGAYESPDGRGGRSYVGGGGGCGNIGRKHNLWGLRTASPACWD [phage S15] | 0.053 |  |
| SWTRWGKHTHGGFVNKSPPGKNATSPYTDAQLPSDQGPP (peptide, not shown: large carriers) [phage PAX16] | 0.171 |  |
| RMEDIKNSGWRDSCRWGDLRPGCGSRQWYPSNMRSSRDYPAGGH [phage DAX24] | 0.118 |  |
| SSSSDWGGVPGKVVRERFKGRGCGISITSVLTGKPNPCPEPKAA [phage S22] | 0.061 |  |
| RWCGADDPCGASRWRGGNSLFGCGLRCSAAQSTPSGRIHSTSTS [phage DAB7] | 0.09 |  |
| SHSGGMNRAYGDVFRELRDRWNATSHHTRPTPQLPRGPN [phage SNi28] | 0.113 |  |
| RVGQCTDSDVRRPWARSCAHQGCGAGTRNSHGCITRPLRQASAH [phage SNi10] | 0.051 |  |
| SGGEVSSWGRVNDLCARVSWTGCGTARSARTDNKGFLPKHSSLR [phage SNi45] | 0.056 |  |
| SPCGGSWGRFMQGGLFGGRTDGCGAHRNRTSASLEPPSSDY [phage SNi34] | 0.115 |  |
| SGFWEFSRGLWDGENRKSVRSGCGFRGSSAQGPCPVTPATIDKH [phage DAB30] | 0.121 |  |
| SESGRCRSVSRWMTTWQTQKGGCGSNVSRGSPLDPSHQTGHATT [phage DAX15] | 0.101 |  |
| RWNWTVLPATGGHYWTRSTDYHAINNHRPSIPHQHPTPI [phage DCX33] | 0.103 |  |
| SGRTTSEISGLWGWGDDRSGYGWGNTLRPNYIPYRQATNRHRYT [phage DCX26] | 0.213 |  |
| B2 | 0.065 |  |
| SKWSWSSRWGSPQDKVEKTRAGCGGSPSSTNCHPYTFAPPPQAG [phage DAB24] | 0.441 |  |
| SHPWYRHWNHGDFSGSGQSRHTPPESPHPGRPNATI [phage DAX27] | 0.424 |  |
| RGAADQRRGWSENLGLPRVGWDAIAHNSYTFTSRRPRPP [phage SNi38] | 0.076 |  |
| RSSANNCEWKSDWMRRACIARYANSSGPARAVDTKAAP [phage DAB18] | 0.085 |  |
| RWCGAELCNSVTKKFRPGWRDHANPSTHHRTPPPSQSSP [phage DAB3] | 0.072 |  |
| SKSGEGGDSSRGETGWARVRSHAMTAGRFRWYNQLPSDR [phage DAB10] | 0.153 |  |
| REWRFAGPPLDLWAGPSLPSFNASSHPRALRTYWSQRPR [phage DAX23] | 0.153 |  |
